Test results from US7109015B2, “Removal of N-terminal methionine from proteins by engineered methionine aminopeptidase” (Academia Sinica, priority 2004, dated 2006).
Values joined by “and” are separate entries in the source; they are usually repeats but may differ in a detail not shown here. Identical values can stand only once. Marks after values point to notes of the source that are not given here.

Legend:
RC-RNase4 = experiment: In vivo Met removal, co-expression in E. coli, RC-RNase 4 substrate; format: cell-based, Rana catesbeiana; conditions: solubility −
Procedure: The MetAP was expressed alone or co-expressed with a target protein, i.e., onconase and RC-RNaseL1, in E. coli BL21 (DE3) in the presence of 0.5 mM IPTG at 37° C.
Proteins in the cell pellet or in the soluble fraction were separated by 13.3% SDS-PAGE and contact-transferred to ProBlott™ membrane (Applied Bioystems) in transfer buffer (10 mM Tris-HCl, pH 7.5, 50 mM NaCl, 2 mM EDTA, 0.5 mM 2-mercaptoethanol) overnight. The five N-terminal residues of the transferred protein were determined by Edman degradation. The percentage of Met removal was calculated by dividing the amount of proteins initiated with the penultimate residue with the amount of total proteins (including proteins initiated with the penultimate residue and unprocessed protein initiated with Met) after the first degradation cycle. In theory, this percentage should remain the same after each degradation cycle. Therefore, in order to avoid experimental variation, the same calculation was made from five consecutive degradation cycles, e.g., M, Q, N, W and L for onconase. The efficiency of Met removal is reported as the mean values of at least three cycles.

Met-tagged onconase = experiment: In vivo catalytic activity of MetAPs co-expressed with Met-tagged onconase in E. coli BL21(DE3); N-terminus by Edman degradation; format: cell-based
In short: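 Wild-type or mutant (Tyr168, Met206, Gln233) E. coli MetAP co-expressed with Met-tagged onconase in E. coli BL21(DE3). Insoluble onconase denatured, renatured and purified, or secreted via pelB and purified from medium. Stored in 20 mM sodium phosphate pH 7.0 for N-terminal pyroglutamate formation; N-terminus sequenced by Edman degradation.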

[1] = substrate MAAWA (SEQ ID NO:15)-RC4
[2] = substrate MAPWA (SEQ ID NO:16)-RC4
[3] = substrate MQAWA (SEQ ID NO:14)-RC4
[4] = substrate MAA-Onc, in vivo in E. coli
[5] = substrate MAG-Onc, in vivo in E. coli
[6] = substrate MAP-Onc, in vivo in E. coli
[7] = substrate MLA-Onc, in vivo in E. coli
[8] = substrate MLG-Onc, in vivo in E. coli
[9] = substrate MLH-Onc, in vivo in E. coli
[10] = substrate MLL-Onc, in vivo in E. coli
[11] = substrate MLN-Onc, in vivo in E. coli
[12] = substrate MLS-Onc, in vivo in E. coli
[13] = substrate MLV-Onc, in vivo in E. coli
[14] = substrate MQA-Onc, in vivo in E. coli
[15] = substrate MQM-Onc, in vivo in E. coli
[16] = substrate MQN-Onc, in vivo in E. coli
[17] = substrate MQT-Onc, in vivo in E. coli

B1: MetAP-*TG (protein)
chain: AISIKTPEDIEKMRVAGRLAAEVLEMIEPYVKPGVSTGELDRICNDYIVNEQHAVSACLGYHGYPKSVCISINEVVCHGIPDDAKLLKDGDIVNIDVTVIKDGFHGDTSKMFIVGKPTIMGERLCRITQESLYLALRMVKPGINLREIGAAIQKFVEAEGFSVVREYCGHGIGRGFHEEPQVLHYDSRETNVVLKPGMTFTIEPTVNAGKKEIRTMKDGWTVKTKDRSLSAGYEHTIVVTDNGCEILTLRKDDTIPAIISHDE
- Catalytic activity (%): percent of penultimate residue removed (RC-RNase4; [1]): 18%
- Catalytic activity (%): removal of N-terminal Met (RC-RNase4; [1]): 100%
- Catalytic activity (%): percent of penultimate residue removed (RC-RNase4; [2]): 63%
- Catalytic activity (%): removal of N-terminal Met (RC-RNase4; [2]): 79%
- Catalytic activity (%): percent of penultimate residue removed (RC-RNase4; [3]): 100 (100)^c %
- Catalytic activity (%): removal of N-terminal Met (RC-RNase4; [3]): 100 (100)^c %
- Catalytic activity (%): removal of N-terminal Met (RC-RNase4; substrate MQDWA (SEQ ID NO:13)-RC4): 93%
- Lower efficiency of Met removal with MetAP and target on separate vectors (Met-tagged onconase; MQD-initiated onconase or GST, pET29b/pET22b versus same vector): 10–15 % less
- Catalytic activity (%): percent of penultimate residue removed (Met-tagged onconase; [4]): 25%
- Catalytic activity (%): removal of N-terminal Met (Met-tagged onconase; [4]): 100%
- Catalytic activity (%): removal of N-terminal Met (Met-tagged onconase; substrate MAD-Onc, in vivo in E. coli): 99% and 100%
- Catalytic activity (%): removal of N-terminal Met (Met-tagged onconase; substrate MAE-Onc, in vivo in E. coli): 96%
- Catalytic activity (%): removal of N-terminal Met (Met-tagged onconase; substrate MAF-Onc, in vivo in E. coli): 100%
- Catalytic activity (%): percent of penultimate residue removed (Met-tagged onconase; [5]): 57%
- Catalytic activity (%): removal of N-terminal Met (Met-tagged onconase; [5]): 80%
- Catalytic activity (%): removal of N-terminal Met (Met-tagged onconase; substrate MAK-Onc, in vivo in E. coli): 100%
- Catalytic activity (%): removal of N-terminal Met (Met-tagged onconase; substrate MAL-Onc, in vivo in E. coli): 100%
- Catalytic activity (%): removal of N-terminal Met (Met-tagged onconase; substrate MAM-Onc, in vivo in E. coli): 96%
- Catalytic activity (%): removal of N-terminal Met (Met-tagged onconase; substrate MAN-Onc, in vivo in E. coli): 100%
- Catalytic activity (%): percent of penultimate residue removed (Met-tagged onconase; [6]): 38%
- Catalytic activity (%): removal of N-terminal Met (Met-tagged onconase; [6]): 72%
- Catalytic activity (%): removal of N-terminal Met (Met-tagged onconase; substrate MAQ-Onc, in vivo in E. coli): 97%
- Catalytic activity (%): removal of N-terminal Met (Met-tagged onconase; substrate MAR-Onc, in vivo in E. coli): 94%
- Catalytic activity (%): removal of N-terminal Met (Met-tagged onconase; substrate MAV-Onc, in vivo in E. coli): 100%
- Catalytic activity (%): removal of N-terminal Met (Met-tagged onconase; substrate MDD-Onc, in vivo in E. coli): 68%
- Catalytic activity (%): removal of N-terminal Met (Met-tagged onconase; substrate MED-Onc, in vivo in E. coli): 33%
- Catalytic activity (%): removal of N-terminal Met (Met-tagged onconase; substrate MFA-Onc, in vivo in E. coli): 2%
- Catalytic activity (%): removal of N-terminal Met (Met-tagged onconase; substrate MFD-Onc, in vivo in E. coli): 5%
- Catalytic activity (%): removal of N-terminal Met (Met-tagged onconase; substrate MGD-Onc, in vivo in E. coli): 95%
- Catalytic activity (%): removal of N-terminal Met (Met-tagged onconase; substrate MHD-Onc, in vivo in E. coli): 92%
- Catalytic activity (%): removal of N-terminal Met (Met-tagged onconase; substrate MIA-Onc, in vivo in E. coli): 36%
- Catalytic activity (%): removal of N-terminal Met (Met-tagged onconase; substrate MID-Onc, in vivo in E. coli): 22%
- Catalytic activity (%): removal of N-terminal Met (Met-tagged onconase; substrate MKA-Onc, in vivo in E. coli): 2%
- Catalytic activity (%): removal of N-terminal Met (Met-tagged onconase; substrate MKD-Onc, in vivo in E. coli): 3%
- Catalytic activity (%): percent of penultimate residue removed (Met-tagged onconase; [7]): 100(100) %
- Catalytic activity (%): removal of N-terminal Met (Met-tagged onconase; [7]): 100(100) %
- Catalytic activity (%): removal of N-terminal Met (Met-tagged onconase; substrate MLD-Onc, in vivo in E. coli): 86% and 90%
- Catalytic activity (%): percent of penultimate residue removed (Met-tagged onconase; [8]): 100(100) %
- Catalytic activity (%): removal of N-terminal Met (Met-tagged onconase; [8]): 100(100) %
- Catalytic activity (%): percent of penultimate residue removed (Met-tagged onconase; [9]): 36%
- Catalytic activity (%): removal of N-terminal Met (Met-tagged onconase; [9]): 75%
- Catalytic activity (%): percent of penultimate residue removed (Met-tagged onconase; [10]): 24%
- Catalytic activity (%): removal of N-terminal Met (Met-tagged onconase; [10]): 88%
- Catalytic activity (%): removal of N-terminal Met (Met-tagged onconase; substrate MLM-Onc, in vivo in E. coli): 100%
- Catalytic activity (%): percent of penultimate residue removed (Met-tagged onconase; [11]): 58%
- Catalytic activity (%): removal of N-terminal Met (Met-tagged onconase; [11]): 92%
- Catalytic activity (%): removal of N-terminal Met (Met-tagged onconase; substrate MLP-Onc, in vivo in E. coli): 5%
- Catalytic activity (%): percent of penultimate residue removed (Met-tagged onconase; [12]): 59%
- Catalytic activity (%): removal of N-terminal Met (Met-tagged onconase; [12]): 82%
- Catalytic activity (%): removal of N-terminal Met (Met-tagged onconase; substrate MLT-Onc, in vivo in E. coli): 91%
- Catalytic activity (%): percent of penultimate residue removed (Met-tagged onconase; [13]): 27%
- Catalytic activity (%): removal of N-terminal Met (Met-tagged onconase; [13]): 76%
- Catalytic activity (%): removal of N-terminal Met (Met-tagged onconase; substrate MMD-Onc, first Met, in vivo in E. coli): 100%
- Catalytic activity (%): percent of penultimate residue removed (Met-tagged onconase; substrate MMD-Onc, second Met, in vivo in E. coli): 73%
- Catalytic activity (%): removal of N-terminal Met (Met-tagged onconase; substrate MND-Onc, in vivo in E. coli): 85%
- Catalytic activity (%): removal of N-terminal Met (Met-tagged onconase; substrate MPD-Onc, in vivo in E. coli): 93%
- Catalytic activity (%): percent of penultimate residue removed (Met-tagged onconase; [14]): 100(100) %
- Catalytic activity (%): removal of N-terminal Met (Met-tagged onconase; [14]): 100(100) %
- Catalytic activity (%): removal of N-terminal Met (Met-tagged onconase; substrate MQD-Onc, in vivo in E. coli): 91% and 90%
- Catalytic activity (%): removal of N-terminal Met (Met-tagged onconase; substrate MQD-Onc, in vivo in E. coli, listed as MetAP-M206T-Q233G): 91%
- Catalytic activity (%): removal of N-terminal Met (Met-tagged onconase; substrate MQDWL (SEQ ID NO:10)-Onc, solubility −, same vector): 91%
- Catalytic activity (%): removal of N-terminal Met (Met-tagged onconase; substrate MQDWL (SEQ ID NO:10)-Onc, solubility −, target in pET22b co-transformed with MetAP in pET29b): 80%
- Catalytic activity (%): removal of N-terminal Met (Met-tagged onconase; substrate MQE-Onc, in vivo in E. coli): 71%
- Catalytic activity (%): removal of N-terminal Met (Met-tagged onconase; substrate MQF-Onc, in vivo in E. coli): 80%
- Catalytic activity (%): removal of N-terminal Met (Met-tagged onconase; substrate MQK-Onc, in vivo in E. coli): 78%
- Catalytic activity (%): percent of penultimate residue removed (Met-tagged onconase; [15]): 59%
- Catalytic activity (%): removal of N-terminal Met (Met-tagged onconase; [15]): 100%
- Catalytic activity (%): percent of penultimate residue removed (Met-tagged onconase; [16]): 65%
- Catalytic activity (%): removal of N-terminal Met (Met-tagged onconase; [16]): 100%
- Catalytic activity (%): removal of N-terminal Met (Met-tagged onconase; substrate MQP-Onc, in vivo in E. coli): 25%
- Catalytic activity (%): removal of N-terminal Met (Met-tagged onconase; substrate MQR-Onc, in vivo in E. coli): 83%
- Catalytic activity (%): percent of penultimate residue removed (Met-tagged onconase; [17]): 26%
- Catalytic activity (%): removal of N-terminal Met (Met-tagged onconase; [17]): 76%
- Catalytic activity (%): removal of N-terminal Met (Met-tagged onconase; substrate MQW-Onc, in vivo in E. coli): 95%
- Catalytic activity (%): removal of N-terminal Met (Met-tagged onconase; substrate MRA-Onc, in vivo in E. coli): 2%
- Catalytic activity (%): removal of N-terminal Met (Met-tagged onconase; substrate MRD-Onc, in vivo in E. coli): 2%
- Catalytic activity (%): removal of N-terminal Met (Met-tagged onconase; substrate MSD-Onc, in vivo in E. coli): 99%
- Catalytic activity (%): removal of N-terminal Met (Met-tagged onconase; substrate MTD-Onc, in vivo in E. coli): 85%
- Catalytic activity (%): removal of N-terminal Met (Met-tagged onconase; substrate MVD-Onc, in vivo in E. coli): 80%
- Catalytic activity (%): removal of N-terminal Met (Met-tagged onconase; substrate MWA-Onc, in vivo in E. coli): 2%
- Catalytic activity (%): removal of N-terminal Met (Met-tagged onconase; substrate MWD-Onc, in vivo in E. coli): 2%
- Catalytic activity (%): removal of N-terminal Met (Met-tagged onconase; substrate MWD-Onc, in vivo in E. coli, listed as *TG): inactive
- Catalytic activity (%): removal of N-terminal Met (Met-tagged onconase; substrate MYA-Onc, in vivo in E. coli): 8%
- Catalytic activity (%): removal of N-terminal Met (Met-tagged onconase; substrate MYD-Onc, in vivo in E. coli): 1%
- Catalytic activity (%): removal of N-terminal Met (Met-tagged onconase; substrate MYD-Onc, in vivo in E. coli, listed as *TG): inactive
